The target in experiment [1] is SARS-CoV2 RBD (receptor binding domain of the spike protein) (SARS-Cov-2, UniProt P0DTC2 319-541).
Experiment [2] concerns the target SARS-CoV2 S1 protein (S1 domain of the spike protein) (SARS-Cov-2, UniProt P0DTC2 16-685).

The Kd is the constant that tells how readily two partners part at equilibrium.

B1: 212434 (SEQ ID NO: 1) (designed binder)
chain: NAAVLDIAQHSATEEIWWLPNLTKQQKVWFIMSLTQDPSVSKEVLGEAQKLNDSQAPK
With B1, the Kd in experiment [1] was 10.2 nM; in experiment [2] it was 3.8 nM.

B2: 212522 (SEQ ID NO: 19) (designed binder)
chain: IAAKFDEAQQAAFYEILHLPNLTELQRNWFIQLLRDDPSVSLQVLGHAQYLNDSQAPKIAAKFDEAQQYAFYQILHLHNLTEEQRNAFIQSLRDDPSVSHEVLGEAKKLNESQAPK
Regarding B2, the results for the Kd in experiment [1] and in experiment [2] were 27.1 nM and 24.1 nM, respectively.

(Values after US20240117010A1 (NAVIGO PROTEINS, published 2024).)
